B1: human NEK8-GFP wild type [human] / Flag-ANKS6 [not stated] (parent complex)
chain 1: MEKYERIRVVGRGAFGIVHLCLRKADQKLVIIKQIPVEQMTKEERQAAQNECQVLKLLNHPNVIEYYENFLEDKALMIAMEYAPGGTLAEFIQKRCNSLLEEETILHFFVQILLALHHVHTHLILHRDLKTQNILLDKHRMVVKIGDFGISKILSSKSKAYTVVGTPCYISPELCEGKPYNQKSDIWALGCVLYELASLKRAFEAANLPALVLKIMSGTFAPISDRYSPELRQLVLSLLSLEPAQRPPLSHIMAQPLCIRALLNLHTDVGSVRMRRAEKSVAPSNTGSRTTSVRCRGIPRGPVRPAIPPPLSSVYAWGGGLGTPLRLPMLNTEVVQVAAGRTQKAGVTRSGRLILWEAPPLGAGGGSLLPGAVEQPQPQFISRFLEGQSGVTIKHVACGDFFTACLTDRGIIMTFGSGSNGCLGHGSLTDISQPTIVEALLGYEMVQVACGASHVLALSTERELFAWGRGDSGRLGLGTRESHSCPQQVPMPPGQEAQRVVCGIDSSMILTVPGQALACGSNRFNKLGLDHLSLGEEPVPHQQVEEALSFTLLGSAPLDQEPLLSIDLGTAHSAAVTASGDCYTFGSNQHGQLGTNTRRGSRAPCKVQGLEGIKMAMVACGDAFTVAIGAESEVYSWGKGARGRLGRRDEDAGLPRPVQLDETHPYTVTSVSCCHGNTLLAVRSVTDEPVPP
chain 2: MGEGGLPPAFQLLLRACDQGDTETARRLLEPGAAEPAERGAEPEAGAEPAGAEVAGPGAAAAGAVGAPVPVDCSDEAGNTALQFAAAGGHEPLVRFLLRRGASVNSRNHYGWSALMQAARFGHVSVAHLLLDHGADVNAQNRLGASVLTVASRGGHLGVVKLLLEAGAFVDHHHPSGEQLGLGGSRDEPLDITALMAAIQHGHEAVVRLLMEWGADPNHAARTVGWSPLMLAALTGRLGVAQQLVEKGANPDHLSVLEKTAFEVALDCKHRDLVDYLDPLTTVRPKTDEEKRRPDIFHALKMGNFQLVKEIADEDPSHVNLVNGDGATPLMLAAVTGQLALVQLLVERHADVDKQDSVHGWTALMQATYHGNKEIVKYLLNQGADVTLRAKNGYTAFDLVMLLNDPDTELVRLLASVCMQVNKDKGRPSHQPPLPHSKVRQPWSIPVLPDDKGGLKSWWNRMSNRFRKLKLMQTLPRGLSSNQPLPFSDEPEPALDSTMRAAPQDKTSRSALPDAAPVTKDNGPGSTRGEKEDTLLTTMLRNGAPLTRLPSDKLKAVIPPFLPPSSFELWSSDRSRTRHNGKADPMKTALPQRASRGHPVGGGGTDTTPVRPVKFPSLPRSPASSANSGNFNHSPHSSGGSSGVGVSRHGGELLNRSGGSIDNVLSQIAAQRKKAAGLLEQKPSHRSSPVGPAPGSSPSELPASPAGGSAPVGKKLETSKRPPSGTSTTSKSTSPTLTPSPSPKGHTAESSVSSSSSHRQSKSSGGSSSGTITDEDELTGILKKLSLEKYQPIFEEQEVDMEAFLTLTDGDLKELGIKTDGSRQQILAAISELNAGKGRERQILQETIHNFHSSFESSASNTRAPGNSPCA

This test covers variants of B1. The test is described as follows: co-immunoprecipitation (anti-GFP IP, western blot band quantification); HEK293T cell lysates co-expressing NEK8-GFP and Flag-ANKS6; parent: 1; read off a plot.
In the case of chain 1 T87A, the ratio to parent was approximately 0.42.
In the case of chain 1 H425Y it was approximately 1.
With chain 1 R602W the figure was approximately 0.95; with chain 1 G580S, approximately 0.97.

Values taken from paper PMC4788435 (2016).
